In the domain aggregation screens of Martell et al. (2025):

Experiment: soluble fraction after stress (log2 fold change); higher = more stays soluble; pooled small domains, quantitative proteomics
Conditions: stress: 50 degC
In short: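 After stress at 50°C, the amount of each protein still soluble was measured. This was done on pooled custom libraries of small protein domains, using high-throughput quantitative proteomics. The figure given is a base-two log fold change and stands for aggregation propensity, with higher values meaning more protein stays in solution.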

Sequence | soluble fraction (log2)
HMQILLASHAELAKGILSAVELIAGTQQNLKAYSAYTEAVDVHFKDQMLQDLNKMDPEDEVIL | 0.0294
HMNRPYVELFSGLGQEEAQQIVQKLQEDEVDYKFSGDSTILVKEDVVDQTKATLVQEGYPKS | 0.0181
HMQESVTVSAQALRRLLEKGDGDAALLYLALLRHHGTIQPRALAGELRWERPRIEAAEEALRQMGLIA | -0.0318
HMKKILITGNSGYIGSHLSKMLENDYEVHGLDIRQPQHPVAKFYEQDINRPINIEEEYDAVIHLAALV | -0.196
HMHPFELNTVTEGQLKRLPFLSDLQIRELLEYRSRYGKMLTLYELKNVEAFDLETISLLVPFIYISEI | -1.38
HMRMSQLSRLISILTLLKSKRLLTATELAEKYDVSIRTVYRDIRKLEEAGIPVYTIEGRGYSLMDNYT | -1.6
HMGPTGGLTPHIAIADKRASEAIEFYKQAFGAVEQVRMPAEDGVRLMHAHLLVNGSSLMMHDDFPEYSGQ | 0.0526
HMTVPDVKGMGARDAVFLLETLGFKVRINGIGQVYEQSIDPGKSYSKGEFISLRL | -0.51
HMHPTDMKLTARLEEGAQFVRTQQLSKAIEIFTEVIKLDQNWAEAWNKRATVFYMMGKFKQSQEDIDKVLA | -0.0571
HMKKEETEAEELEEKFTSAQIKQAYGILNDPRYKQGNYSGAVNVINKIAPGLADHPDVKNALKRANEEL | 0.0375
HMNEWSIDINLADEKQWTAKTKLSPAIIQNIIRYKNYLGGFTNLNQIKKVYGFTEANYYLLKPHLQLGK | -0.909
HMALSGTVQNFAGGIMILIFRPFKTGDYIEALGYFGKVSEVNIVSTKLRTFDNKTIILPNGALSNGNIQNY | -0.889
HMKTTKLEELDMQKEFILKNGKYGFGVYIGGKYIGLTDIGTVNSFKDSLQLPVVSLSDIDFKTFAEKF | -0.757
HMENMRLILASNLRRIREERRLSLNKVSELTGVSKSMLGQIERGESNPTLQTVWKIANGLRVSLTDLTEVP | -0.0326
HMTKQDYLTALQQELNKNAVADAEDIVSEYEQHFQFKLADGFTEEEIAAKLGAPAQIALQFAG | 0.167
HMLAAAVVVYATDKVNVRAEASETADVIGQLEAGSQTTRLEDKDGWSRIDYSNGTQGYMKSEFLSTEAPT | -0.102
HMAPASADQLIDQLNEKVKAKDDKGVAALLTAAQTKMAELAQKDPKEAQAYVAKLQQWMQSNSENIKAALK | 0.157
HMPDYAFEGVVIKLTHRDYDRWKAGFPDVDLPPYLTARDAWLSEQTPADRKNWFVSTATDLRNFQKREAI | -1.66
HMIETIQVPRAFNDWHEQADKTKSVFEVYAEIEASENEKLIAWVRNNQNEFAKIWLGALIPELE | -1.39
HMDPSWVPVFNNLRDAILSHQLLPGTRLAEDELSNIYGLGRTVIRSALGALTHEGLLTHIPNRGVHVAKP | -0.819
HMAAIPEQVSEEVVSAVKASGIDPGKVTKEQWTSLLKGRRTALGSSSGKLFMLSKAPVGYTLKAVNA | 0.333
HMKSARQIAILEIIAEKSIETQEDLADALRLRGFQVTQATVSRDIKELRLVKALAPDGTYRYATAEK | -0.0157
HMIDQIAEQLQQRLAVDTAFATIQRDYPDVIANKDIELLTAIKVNQKIAEGASRASAMLESAKEVYETL | -0.0203
HMGAGFREAIPPALDGERIDRVVSLLAYVSRNRAAGALAAGSVSVDGEVVFQRSRRVREGEELVVTGFERE | -0.97
HMGSVDMVYGDHKINSEHMDLSFKNQTAVLYDKVNYKSSLSMLSADKILVNFLNKYTKIEMNDENNNILIQ | 0.059

Sequence | soluble fraction (log2)
HMTEAVYMPALQNKTLEEAQRIVEQYDLELEYTYEANAQVEEGRILSQTPQMGVLVERGEKVQAVVSLG | 0.571
HMGQGAASAPLRELGVDPVSEKQMVLKDGRFGPYVTDGETNASLRKGDEVETITDERASELLQMRRDAGPS | -0.195
HMTMGAAEAQALKDEALELYRTGGTQEDVVRAIEMYEQAAEAGNAQAASDLAYLKANGVYETAMNN | 0.268
HMTGIQLNDRERAILQHLSDGLTTKAIAERIFLREDTVKWYRKNLLARFEQPIVAALVKWAVLEGLV | 0.141
HMYTGSEGMAGLEGRAVTEVGPEAGTVLVKGEYWQARSDEPIATDRKIRVIRLEGLRLRVAEIHPEG | -0.0371
HMKDPSLEHIDALAGKPFQAFPGQDHRAHITAHLNFMSTNMVRNNPSIMAAIQKNILEHISLMAQEQIQL | -0.783
HMDAAEVEATARAMLRRSALNLLAQREQTAFELKQKLSRRFPEQAALLDEVIERLQEQGLQDDTR | -0.102
HMELLTYREMDVLNLLDQRLTNKEIAHALGISTETVRQHTVNLFRKLNVDNRRQAIVVARSLGYIGTPT | -1.2
HMVKSYEVPDVSNLTVLEAEAKLQEMGFEIDEEQKEISSSDIESGRVVKTSPQAGSKRKEGAIITLYVSSG | 0.163
HMIPENKRVLISLTYIYGIGKKISQDILEKANIDSSIKTSQLTDDDVARIRQLIENDYLVEGELRV | 0.0489
HMGIAKYRQVTEWIQNRIATGELNRGDQIESENDISRTFGISRQTVRHALGLLEQQGILTRIQGRGTFVRD | -0.661
HMSKKLLVLQTSDDAKAKDVLSQNGYQLDDGDKLSIIETEQTKMADVIKLLSDNAIDIEDVQHVH | 0.217
HMRKIVEGVLTKKEGKWYLLTDIETYKISDASAEYHKAELNDRASALIPAQNPKVPFASLEKVFN | -0.219
HMIDSVFASYRQVALDDELWDKVRNGAVLPKVELFEVMDGPVLFTYQSKIVAMYEPHPTKAGYIKPRKMFL | -1.18
HMQSFIEELLPVVDNFERSLAVVDPSDEIKNFLKGYEMIYNQLMEVLKSQGVEVIKTEGEEFDPNFHQA | 0.0366
HMFEERKKDWNLTGLLDDVIRRYIHQLTNDELNEINLEKSSGMPDEEIKNGIKLPLAVMQQRRETWGS | -0.16
HMQSQIAQLYNPLLGYVKKRINSREDAEDLTQDIFLKLSKSNKDGVDNLKSWLYTIAKNTITDYYRKKKII | 0.15
HMANSANARKSLVSKLIAGGKIASQSDLVKALKKQGIVVTQGTASRDLEDIGAIRVRNSEGEIVYALT | 0.081
HMARRTPPPTVSELNALLRVAAPHIQRVILLGIYTGARIGPSELFSLKWDDVDLTRGVIGIRL | -0.0306
HMGMGDALRILFNQAMLIEREQYLQAGAYERNENPVNYANGFKAKTLNTRVGALEVAVPQTRDSAFYPSFL | -0.114
HMIDHKVIRSFRQKRNMTLQELAQKANLSVSYLSEIELGKKQPSLETLDKLSKALNISLEGL | -0.116
HMAAIPATVDEETYRRLKPMLKQYGILYHEFKPLRSGKKGAVELIFMEKDLALVQELLSRLKKEK | 0.422
HMEKALEVKYQKMVELLGDQSTFYVDEVKKIFPEMKKSSLYWNMSKLVEGGYLRRIRNGVYAFNE | -0.48
HMEGTVQQDKFDAYKAKFEDAISNDLNTSMAITIIYDLLKDDMNDKTKLALINDFDKVLSLNLTTA | -0.255
HMKLTKPQEVFIQELLKGSSQYEAYLKAYPSKKTWKRNSIDTEASKLFKNAKIKQRYEELLYNIREE | -0.167

Sequence | soluble fraction (log2)
HMQVFDSNEIDEVVKKVIENNPQAVADFKKGKSNALQFLAGQVMRETKGRFNPNVVQERIRLLLT | 0.458
HMQDENAVTYLLEIKNADANDIASVLKTLKSPDADVVVYKTLNMIIFTGQGSEINGLVKVARQLDRK | -0.417
HMTRHIQVNDSIASTPIEDVYFSTRTYNALLNNGISVIGDLSKYTHDDLYASFQGLGRAGVLEIEAYLRQD | -1.53
HMAQKQLYIAGTDYTKNSTSQLVLAYFPAKPSSIKIFFDGIYQNKDKWSLFGKTIIFGLPISSNAVEVHYE | -2.1
HMQMPDLTGKPRAEAVTTLAALGFTDVKFLDASAGDEPLDYVADQVVRTSPEAGAALASGQQITIYLAT | 0.101
HMVFRFELQPSSATPLYRQIVEQVTRAVAAGVLRDGEELPSVRAVAQEYVINPMTVSKAYSLLEAQSI | -0.349
HMSHKYKLTVPETGEGTRVDKFLSSALTELSRTRLKSLIEEGQVTLGGVKLTNPSHRVKSGDELNIEIPVP | 0.146
HMINKDNLIEEILKFINTKIADISSNNPLFDIVAKPYISKVVTNNVSKLDKALSLIADDKGMVDADGLLT | -0.292
HMGGAVQIAEQIAARIKDGALRPGELLPPVRQLAAELEVNPNTVASAYARLRDAGLVATRGRAGTVVLEPP | -0.172
HMTRVANIPYSEFLKLVETDKINDVSMVGKTISGHLDDGTKFSTYTPPNDPNLIDKLSKHNVIIKAGPE | 0.0971
HMGQVEVPDVVGMTQERAITTLTEAKLVAQIQLTPADVAKGLVAAQSPRAGLKIGEGSFVTIEVSTGPVI | 0.0948
HMLPVYSITEAAERLDIPASTIKWYADRFASYISPSKGKGRKRFTPEDLATLQKIHELSQDHTTEEAEAML | -0.281
HMRLLGEPLAGRLKKDVPVVTGRSTESKAIAQFFELRWSHLPDPEARTISVASGRIDFMDVGATRFSLR | 0.054
HMGRMSLDEAKAVILPIGEHKGHTMGEVLAIKPGLIDFYASQKFNSGKYPYLKEAAQVILENQG | -0.109
HMDAPLIIAETRVDVPDATVSDAVMMLDLRNTNALLFKNSGSGVLNMVYRRGDGTIGWGEPQ | -0.0172
HMLKDQSIAQLEKNLDDLKGLMRKMFGSSDVPKITKMISDIESSLANFNQSKANKLIVQTTNYISSKL | -0.36
HMSGEPVKSTLPGNVFKILVAVGDSVKKGQRMFVLEAMKMEIDVNAPKDGLVTSIEVQQGQTVANGQILAK | 0.0741
HMDIKDRSGVTIDESNEAQQESIIRESWAEQKISGNVDNYIAYLKANGMLLETAKIELAALQEKDASLRE | 0.0421
HMGEAIPVPDIRHKSQADAERLLQDQGLAMMVTDTGYVKTLPANYILEQIPVAGEKVKSGHVVYVIINSG | 0.0717
HMPKELAPYDILARYYLTVNNSKQSIALLEQYLDKAGSAPAALKAKLLLAGILYPSGNKERAEKLVEEVIK | -0.465
HMEISLAETLRSSLHMILGWYQNTGDKKLLELIRLHLQAYVNTGNSLNPEMEEIRAALETLGEGKEAFRP | -0.999
HMNINHEINIKSKKKISILENNPNLSQFYLTKNPDQYNYNLVFSDKSELNKLKEKLESDNEVEDIDIRYG | 0.06
HMTIGEALLNLRKQLGLNQTEMAANVVSTSFYSKVERNIHDIGTKDLLQILNKHQINATYFFENLN | -1.91
HMTEWDDATVKDAVEYFMSVNGRVPTVTDFKKENGLPSHPVIKQRYKINLHEWLNKNFPTYY | -0.544
HMTTARERVYKTLQQWIVNGTLLPEERLNDVELARYFSVSRTPVREALQMLAEQKLVKMVPSSGTFVA | -0.769
